Experimental data: the domain aggregation screens of Martell et al. (2025)

Experiment: soluble fraction after stress (log2 fold change); higher = more stays soluble; pooled small domains, quantitative proteomics
Settings: stress: pH 4
Method in brief: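 Values are on a log2 scale, where higher means more of the domain stayed soluble after pH 4 stress. They are fold changes in the soluble amount of each domain from pooled custom libraries, measured by high-throughput quantitative proteomics. The fold change is taken to reflect aggregation propensity.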

Row | Sequence | soluble fraction (log2)
1 | HMQLTPAQHAILAYAIEHTGGKIEWFPDNIKGGARTKVLEGLFNKALITRDSTDWFVAAEGYDALGR | 0.428
2 | HMNPTTQIQYNLPKSEFVSIYIYDLIGNRVKSLINNYQDAGYKSVYWDAMNDLGQPVSAGMYIY | -0.0442
3 | HMVMSTDAELILEYLAKHQGEMEITDKSSPELIMDTFNMSKGAFKRALGSLYKSKTVVIESTKVLLNT | -0.0971
4 | HMQMTTPQMVPLFTDLSVDDSASIIKDLERQAVPYQIKSDGAIIMVPKDKVTRLRMKLAESGLPK | 0.402
5 | HMQESTPGEGYKWREDVLLRVMSQNGIDESLRDEFVRHAVNYDIDDNMYLKKAEIESAAEAWVLENS | -1.92
6 | HMDIASNQIQGIKDSVGGDENYSKMVAWALESLPAEEVKAFNDLTETANAPAIKMAVQGLYSQYNNAM | -0.9
7 | HMEKLNYSISNEEQGQRIDKYLSLMIEGKSRSFIQGLIDDKKVMANGKVIKSNYKLKNNDEITVEMPDPI | 0.0918
8 | HMRPDDPYLVIGASREMGDEELKRHYRRLVAETHPDRGIARGLPAEAIAIATRRLAAINAAWDAIERERGL | -0.158
9 | HMEIKDQADAYGKMEPASAAAILSEMTNDLTLVAKILDSMQTSKSALILQNMKPTTAAQVTTKMTAMK | -0.11
10 | HMISDAEWTIMKALWQSEDKKMTLKEIAEAVADSGWSYTTVRTMVGRLVEKEAIEADESHPRNFRYSAA | -1.4
11 | HMEKSQIHLIHTRYVNPEQLVPILSMVIPAENIYVKSDSNLIIINGSSEMLREVESIVSKLDVPS | -0.687
12 | HMNIEANLEDILRRAMPSAAKLILENSLNINKIIGTGKEGRITKGDVLLYLKDKNLILENILN | 0.0861
13 | HMNNMVNTLLKLLAEQDVLRGIVRRFTPSSVFVFLQNEEVEVELPLQGRSLAPGQLVELTQEGASVALKRL | -0.679
14 | HMLEQEQFESKLLKAINNINETQRIAFLMHRIDGKKYAEIASELNISVKAVEKRIHLALIELKKEIENF | -0.396
15 | HMVAPKDIVMPSFVGKKYTDVVNTPNSSYTFEFKKDEKNSSDYAVGFIMDQKPKAGETVKSNATVTLIVSK | 0.0982
16 | HMFDMLGDQIKKYRKEKKMSQEELAIPLNVVRQTVSKWENNLSVPDAELLIRLAEVLEISVAELLGT | -0.76
17 | HMLKFGLSQRELQILALLPTDEPLSILAKSLFISESTLKTHLTHIYRKLGVKNRLQAINVARKAGLLK | -0.502
18 | HMTKTFDSPEDADNDVLAKTLFQIFGVQSVYLKENFVTITKSNSVGWHTLMEKTGHTLEEHLKF | 0.0576
19 | HMAGLKERLFYFIEYKGLTVQSFEKTVGLSNGAVSKMGDNTRRSTIDKISNFFGDLNKNWLLTGEGEMLI | -0.638
20 | HMTSQVTVHVVGAVEKPGVVTLDAPSRVQDALEAAGGALPEAELSGVNLARELFDGEQIVVPAQGEDV | 0.0598
21 | HMPHITDAEWEVMRVVWANHHVTSKEVISILEDKMNWKATTIKTLLGRLVEKGALSTEQDGKKFIYTAR | -0.622
22 | HMKEQYTELDWDKVQVNDKVMIKDLNQQVTILSLPDKNNALYIQMGMIKTKVKKEKLAVYNPQLA | -0.103
23 | HMEKERYDTGIGELNRVLGGGLVKGSLILISGDPGIGKSTLLLQTANNISKKYGKVLYVSGEESEEQIKIR | -0.722
24 | HMDPYLSGLLQKLAETDKKISFTRLRSEDLDGESREAIYEFIEKYSGRFGVRWLLNEFGLSPSVYYNYLHS | -0.644
25 | HMNSSLFLARQVHALRKKAGLTLQQLSRKSDVSVSTLSKIEKGQLSPTYEKIVSLARGLDVPIAALFHE | ≥ 0.43
26 | HMIADSSSIHQDAKQQLHSYLRTNIQPLMRAGKQLDLKDILHHVTIRKPKLVQQLGMKQVQHMVQVLLD | 0.184
27 | HMSEPQYKVLFSNLDDRDGGAIVTALGAMNVPYKYNDTGTALLVPADRVYDARLQLASQGLPRG | 0.172
28 | HMKLTNNDFIRLKTFMYNNYGINLENKKTLIETRLAIVVKRLGFNDFKSYIDNLMRDKTGEQASIIVGKLT | -0.141

Row | Sequence | soluble fraction (log2)
29 | HMEVSVPDFTGMSKSDAQNAAKEAGLTVNFEEDYDNQVPAGQVIRSNPSAGEKVKKNSSVTVTLSKGSN | 0.24
30 | HMQINLSEWVLAAREYAGPEMTQEKLAEHLGRTKANVSAMENGRSKPSFEQMMEIHRVTGYPLPYQ | -0.0156
31 | HMNGTGSVYKLSGKRRNPWRAVVTNGWAYNEEKGKLVQNRVTIGYYHTRDEAIQAIANYNSSP | -0.125
32 | HMEKIIGQIQINQRGNGYVIVPNVKDDIFVKRENLNSARQGDRVAVQLLSRPNQKPEGLVQEVLERGQ | 0.071
33 | HMKISIDNPSVLLDKLATLFPDTSKNKLRKMLTEGRIYVNDNIEHRAKRELINGDTVKILDKTTSKE | -0.0228
34 | HMEDVDLFTKAMAALPNRYRDILLLRYSHGYTVEEISDILSMKPENVKKTIQRARKKLGEILEAEG | -0.202
35 | HMRELSDFEKLLFTTTLERKMINLAMLLTRSNKADSKDLIQDSYLKAIENQVQFNGNNIDAWVITILKNTF | -0.361
36 | HMEPTIGTATVTSGSRLNMRSAKSTSASVVTRIPSGATVGVISYASDWSKVTYNGYTGYVSSPYISMNG | -0.108
37 | HMQVTDTGTIEGEIDKVLAANPDRVTEYHDGKEKILGWFVGQVMQTTKGKANPQMVNQLFLEKLK | -0.00465
38 | HMRVTEIDYGAFMKMIEEKNIGEVKVEDYEIVFTDKDNKNIYKTGIMDDPDLTQRLYNSGAVFA | -1.22
39 | HMSSKFKIVGEILSIKKSDILYIIEILSNNEVVKATAVEDEIKDLKIGDKILLSSKAFNPIVNK | -1.09
40 | HMKLNETIAEARKRKGLTQEQLAQKLYVTRQAVSRWERGEVVPGIDMLKLIAITLEEPIVHLL | -0.679
41 | HMATTPEETILEYINKNNRISKQEIADLMGITRDGVSYHIKKLRKNGLLEWIGSPSNGHWEIIE | -0.52
42 | HMKDITAVISKKKGRDYYYIIVSYHLSNGKRVQKWIKTEFSVNGNNKRKLEQKRIEILQEWQNKLV | -0.0977
43 | HMLRQVSDSNALETAVKKVLDANPEEVERYKSGNKKLISFFVGQTMKATKGAGNPKEINSILAKLL | 0.201
44 | HMRRATLERLANNTAEKAIRYKRSLALEPMNPQERRIIHAALQEVEGVSTHSVGTEPNRKVIVVPDGV | -0.186
45 | HMSYLDTLPGRRVAAQGAITGDAGTLAVDGDTWSARVEPGAPDVAPGDEVTVLRIDGATLVVRPLP | 0.0453
46 | HMYIVVPDLSKKDINEVANILAAQSLRFQVIDSANFRSDFPKNAVISQKPLAGSEVKVNKKIYLQLNPS | -0.608
47 | HMKYEGEDEYYASLVTEKIAAIGTVTEESEDAIKEARAAYDALTSAQKKLVTNYDVLDEAEK | 0.302
48 | HMTSSVIIPKLIGKTEEEAKVALAGLNVQVLYETHGDQANGIVIKQSFEEGTKVIKGVSIVITVNKVS | -0.256
49 | HMEAISSESIKKMIKSYVSGEDASKPLSDQQIADLLVKEGYMISRRTVAKYRDELGILSSSKRKR | ≥ 0.43
50 | HMGNTLAYSEFRQKVQEGAVKQVVLSEDRVTGELTNGDRFTANIVRDPELLKMLNDNNVKYDGKPT | -0.0484
51 | HMSIGPQMAGRRVLSGDLIARLEAFEGTVVLGRGVAREDALLIATQAGHVRWEPASRRLWVDSTA | -0.0304
52 | HMIDNFFTIRFNYSKINEVIRLLKEFNGEIFNKNYDKNEYIIEFSIPKKDAALLISKLKNITGLTIEQ | -0.538
53 | HMNIFKLYEENIGPLTPMIADILKEDEAEFPDYWIREAIEIAVKKNARNWKYVHAVLESWQKE | -0.259
54 | HMKDGAKYFQLFGLLKNEINRGIYQSGQKIPGENELAEKYGMSRQTVRQALSLLEQESLIERRQGSGTYVR | 0.185
55 | HMTGIQLNDRERAILQHLSDGLTTKAIAERIFLREDTVKWYRKNLLARFEQPIVAALVKWAVLEGLV | 0.409
